Reference: patent US20250059288A1 (GRANITE BIO, published 2025)
Each block holds one binder with its values, some of them ahead of it.

Assays:
[1] = molecular target: T1, Human CCR2b (hCCR2b) (human, UniProt P41597-2 1-360); experiment: flow cytometry on human whole blood, classical monocytes, median fluorescence intensity
T1 construct: also called CD192; MCP-1 receptor
T1 sequence: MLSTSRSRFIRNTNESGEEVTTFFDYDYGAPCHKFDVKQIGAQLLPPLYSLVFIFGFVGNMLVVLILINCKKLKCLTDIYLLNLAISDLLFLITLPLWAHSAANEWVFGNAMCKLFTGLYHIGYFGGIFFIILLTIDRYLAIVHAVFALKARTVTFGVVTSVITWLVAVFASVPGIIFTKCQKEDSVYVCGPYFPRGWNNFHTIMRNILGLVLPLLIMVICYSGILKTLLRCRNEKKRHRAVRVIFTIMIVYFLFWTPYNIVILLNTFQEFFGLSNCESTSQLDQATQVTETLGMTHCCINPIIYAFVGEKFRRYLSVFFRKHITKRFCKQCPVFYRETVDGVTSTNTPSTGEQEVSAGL
Description: Human heparinized whole blood was incubated with the indicated antibodies for 45 min on ice, washed three times with cold PBS, then stained with secondary PE-labeled rabbit-anti-mouse Ig (R0439, DakoCytomation 1:200) for 30 min on ice, washed 3 times with cold PBS. The 10% mouse serum was added for 10 min and after that directly labeled antibodies against CD3-APCCy7, CD8-PE-Cy7, CD4-V500, CD123-PerCP, CD304-APC, CD116-FITC, CD16-PB. After washing and lysis of red blood cells with BD Lysing solution cells were acquired on a FACSCanto-II and analyzed by FACS-DIVA software. Classical monocytes were identified by light scatter properties, expression of CD116 and absence of CD16 and CD123. Median fluorescence intensity for PE is depicted on classical monocytes.

[2] = molecular target: T1, Human CCR2b (hCCR2b); experiment: flow cytometry on human whole blood, 0.5 µg/ml
Description: Y4T3 was humanized by CDR-grafting resulting in hY4T3. Databases of Human IgG sequences and human germline sequences were searched for comparison to the murine VH domain and VL domain using BLAST search algorithms, and candidate human variable domains selected from the top 200 BLAST results. These were reduced to five candidates for VH (HC1-HC5 or H1-H5) and five candidates for VL (LC1-LC5 or L1-L5) based on a combination of framework homology, maintaining key framework residues and canonical loop structure. In total 25 humanized variants of Y4T3 were generated. The humanized Y4T3 variants were tested for binding to human CCR2+ monocytes in whole human blood by flow cytometry. 60 μl of lithium-heparin anticoagulated human whole blood was incubated for 45 min on ice with the indicated antibodies at 0.5 μg/ml in PBS. After three washing steps with cold PBS the bound antibodies were detected with PE-F(ab)2 goat anti human IgG (Jackson ImmunoResearch, 109-116-098) together with directly labeled antibodies against CD8, CD4, CD123 and CD116. After 2 washing steps with 0.9% NaCl red blood cells were lysed with Lysing Solution (BDBioscience) for 10 min in the dark. Cells were washed once with PBS and analyzed by flow cytometry to identify CCR2 expression on various cell types including monocytes. Mean fluorescence intensity (MFI) for PE was determined for these cell populations and is depicted.

[3] = molecular target: T2, Human CCR5 (human, UniProt P51681 1-352); experiment: flow cytometry on CHO cells transfected with human CCR5
T2 construct: On transfected CHO cells; also called CD195

[4] = molecular target: T3, Marmoset CCR2b (Marmo-CCR2b) (marmoset monkey (Callithrix jacchus)); experiment: flow cytometry on marmoset splenocytes (legend of FIG. 8)
T3 construct: On transfected CHO cells and, as native CCR2, on marmoset monocytes (splenocytes, PBMCs)
T3 chain: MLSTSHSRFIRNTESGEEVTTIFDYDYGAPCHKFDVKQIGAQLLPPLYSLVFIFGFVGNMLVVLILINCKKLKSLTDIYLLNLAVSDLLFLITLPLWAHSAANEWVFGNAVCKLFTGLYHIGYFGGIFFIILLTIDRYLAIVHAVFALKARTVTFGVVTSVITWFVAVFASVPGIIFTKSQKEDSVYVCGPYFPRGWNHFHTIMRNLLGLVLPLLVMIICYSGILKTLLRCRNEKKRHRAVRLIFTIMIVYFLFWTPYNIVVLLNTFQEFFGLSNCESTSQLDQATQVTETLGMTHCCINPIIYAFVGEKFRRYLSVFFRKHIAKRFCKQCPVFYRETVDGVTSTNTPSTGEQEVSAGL

[5] = molecular target: T4, Mouse CCR2 (mouse, UniProt P51683 1-373); experiment: flow cytometry on mouse CCR2 CHO cells, various concentrations
T4 construct: whole, on cells
Description: Mouse CCR2 CHO cells and human CCR2 CHO cells were incubated for 45 min on ice with PBS or various concentrations of hY4T3. After 3 washing steps with cold PBS, cells were stained PE-F(ab)2 goat anti human IgG (1:300; Jackson, Cat.No.109-116-098) for 30 min on ice. After 3 washing steps with cold PBS cells were analyzed by FACS to measure mean fluorescence intensity (MFI).

[6] = molecular target: T2, Human CCR5; experiment: summary table; binding to human CCR5
[7] = molecular target: T5, Rhesus CCR2b (rh-CCR2B) (rhesus monkey (Macaca mulatta), UniProt O18793 1-360); experiment: flow cytometry on stably transfected CHO cells
T5 construct: On stably transfected CHO cells
T5 sequence: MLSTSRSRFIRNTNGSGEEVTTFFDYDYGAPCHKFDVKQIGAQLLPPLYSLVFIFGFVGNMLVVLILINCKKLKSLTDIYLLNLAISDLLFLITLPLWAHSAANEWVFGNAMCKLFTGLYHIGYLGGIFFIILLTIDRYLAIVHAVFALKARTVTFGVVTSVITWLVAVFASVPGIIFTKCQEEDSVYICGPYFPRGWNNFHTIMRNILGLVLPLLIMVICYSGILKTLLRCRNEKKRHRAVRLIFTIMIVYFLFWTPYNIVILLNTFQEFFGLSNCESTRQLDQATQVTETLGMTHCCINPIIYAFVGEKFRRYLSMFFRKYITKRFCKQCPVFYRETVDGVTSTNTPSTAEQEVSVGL
Description: (§1) To further investigate the specificity of the antibodies of the present invention, binding of Y4T3 to various CCR2 constructs was tested. […] Untransfected CHO cells (empty) were also analyzed. Antibodies were tested at concentration of 10 μg/ml and incubated with the cells for 30 min on ice. After 3 washing steps with cold PBS, the bound antibodies were detected with a PE-labeled polyclonal rabbit anti-mouse immunoglobulins antibody (R0439 from Agilent Dako, diluted 1:200 in PBS) for 30 min on ice. After two washing steps with PBS, cells were analyzed by flow cytometry. Mean fluorescence intensity for PE was determined on cells and is depicted.

[8] = molecular target: T6, Human CCR2b with the ECL2 domain of CCR2b of rhesus monkey (ECL2-hCCR2b) (human, with rhesus monkey ECL2 domain, UniProt O18793 1-360 (rhesus entry)); experiment: flow cytometry on stably transfected CHO cells
T6 construct: On stably transfected CHO cells
T6 chain: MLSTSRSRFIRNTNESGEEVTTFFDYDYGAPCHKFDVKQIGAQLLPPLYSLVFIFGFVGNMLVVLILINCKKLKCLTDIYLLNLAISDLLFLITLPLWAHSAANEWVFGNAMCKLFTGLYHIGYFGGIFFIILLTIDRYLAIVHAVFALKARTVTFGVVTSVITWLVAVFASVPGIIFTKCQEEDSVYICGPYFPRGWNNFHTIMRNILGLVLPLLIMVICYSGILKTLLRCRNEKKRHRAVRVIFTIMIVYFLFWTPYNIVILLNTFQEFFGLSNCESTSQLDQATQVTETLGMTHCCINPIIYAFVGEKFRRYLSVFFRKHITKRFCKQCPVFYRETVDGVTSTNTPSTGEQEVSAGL
Description: as §1

[9] = molecular target: T7, Human CCR2b with ECL3 domain of CCR2b of rhesus monkey (human, with rhesus monkey ECL3 domain, UniProt O18793 1-360 (rhesus entry)); experiment: flow cytometry on stably transfected CHO cells, 10 µg/ml
T7 construct: On stably transfected CHO cells
T7 chain: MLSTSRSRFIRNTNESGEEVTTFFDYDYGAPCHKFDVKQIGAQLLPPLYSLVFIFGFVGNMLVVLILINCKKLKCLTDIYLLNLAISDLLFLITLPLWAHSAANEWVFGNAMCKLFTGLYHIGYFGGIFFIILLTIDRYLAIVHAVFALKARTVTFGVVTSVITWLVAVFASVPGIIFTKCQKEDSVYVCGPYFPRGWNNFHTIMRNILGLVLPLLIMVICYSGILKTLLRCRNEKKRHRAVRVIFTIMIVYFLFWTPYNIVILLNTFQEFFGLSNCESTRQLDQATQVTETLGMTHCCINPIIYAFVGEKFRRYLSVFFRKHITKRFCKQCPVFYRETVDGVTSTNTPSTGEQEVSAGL
Description: as §1

[10] = molecular target: T8, Human CCR2b with the N-terminus of CCR2b of rhesus monkey (human, with rhesus monkey N-terminus, UniProt O18793 1-360 (rhesus entry)); experiment: as above
T8 construct: On stably transfected CHO cells
T8 chain: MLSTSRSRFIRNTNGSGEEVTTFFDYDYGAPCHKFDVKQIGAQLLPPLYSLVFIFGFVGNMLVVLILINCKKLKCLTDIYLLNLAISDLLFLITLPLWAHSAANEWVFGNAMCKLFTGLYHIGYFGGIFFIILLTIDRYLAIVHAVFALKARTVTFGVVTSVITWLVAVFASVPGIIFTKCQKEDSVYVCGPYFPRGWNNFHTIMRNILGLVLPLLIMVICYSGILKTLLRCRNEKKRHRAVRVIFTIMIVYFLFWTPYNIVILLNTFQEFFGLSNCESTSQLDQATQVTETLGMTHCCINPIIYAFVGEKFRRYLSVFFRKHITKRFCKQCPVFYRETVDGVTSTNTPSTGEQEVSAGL
Description: as §1

[11] = molecular target: T3, Marmoset CCR2b (Marmo-CCR2b); experiment: summary table; affinity to CCR2 expressed on marmoset PBMCs

T2 sequence (P51681 whole entry): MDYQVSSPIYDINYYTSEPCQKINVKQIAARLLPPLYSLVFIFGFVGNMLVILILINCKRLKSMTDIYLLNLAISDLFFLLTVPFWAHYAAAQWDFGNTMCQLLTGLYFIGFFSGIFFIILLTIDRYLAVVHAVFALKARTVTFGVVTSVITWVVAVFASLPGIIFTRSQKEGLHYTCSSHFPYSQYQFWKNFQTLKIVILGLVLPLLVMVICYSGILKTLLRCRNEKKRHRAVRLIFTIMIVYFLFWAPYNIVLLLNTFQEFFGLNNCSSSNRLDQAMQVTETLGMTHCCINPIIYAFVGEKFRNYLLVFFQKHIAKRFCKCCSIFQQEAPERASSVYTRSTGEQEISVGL
T4 sequence (P51683 whole entry): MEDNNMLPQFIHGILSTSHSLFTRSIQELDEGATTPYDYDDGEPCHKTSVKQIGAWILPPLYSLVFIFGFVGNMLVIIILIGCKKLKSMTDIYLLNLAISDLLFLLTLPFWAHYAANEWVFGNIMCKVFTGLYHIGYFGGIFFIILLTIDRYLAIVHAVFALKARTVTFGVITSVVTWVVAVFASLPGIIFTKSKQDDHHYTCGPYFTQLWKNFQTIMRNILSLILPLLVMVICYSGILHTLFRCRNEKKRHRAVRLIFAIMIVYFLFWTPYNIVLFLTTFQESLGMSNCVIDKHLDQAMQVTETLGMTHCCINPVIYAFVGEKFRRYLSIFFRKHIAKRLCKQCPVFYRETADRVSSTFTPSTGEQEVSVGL

B1: DOC-2 antibody (antibody, V domains shown)
VH: EVQLVESGGGLVKPGGSLKLSCVASGFTLSNYAMSWVRQSPEKRLEWVAEVSSSGIYIYYSDTVTGRFSISRDNAKNTLYLEMSSLRSEDTAIYYCARDRYAYAMDYWGHGTSVIVSS
VL: DIVMTQSPSSLAISVGQRVTLSCKSSQSLLNSYNQKNSLAWYQQKPGQSPKLLVYFASTRESGVPDRFIGSGSGTYFTLTITSVQAGDLADYFCQQHYSNPRTFGGGTRLEIK
notes: Prior art anti-CCR2 antibody; detected with anti-mouse Ig
binding result [1]: binds

B4: human IgG1 chimeric variant of Y4T3 (Y4T3-chim) (antibody, V domains shown)
VH: QVHLQQSGTELARPGASIKLSCKTSGSTFTRYTMHWIKQRPGQGLEWIGFIVPSTGYTKYNQKFKDKATLTADKSSSTAYMHLNSLTSEDSALYYCARNKEVDYGASWGQGTLVTVSA
VL: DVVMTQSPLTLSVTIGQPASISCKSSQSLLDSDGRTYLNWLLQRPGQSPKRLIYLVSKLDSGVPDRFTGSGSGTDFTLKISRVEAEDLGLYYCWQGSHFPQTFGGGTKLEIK
notes: also called H0L0
binding result [3]: no binding (tested: 10 µg/ml and 1 µg/ml)

Continued, in another order:

binding result [2]: binds
binding result [4]: binds
binding result [5]: no binding
B2: hY4T3 (humanized Y4T3, variant H3L1) (antibody, V domains shown)
VH: QVQLVQSGAEVKKPGASVKVSCKASGSTFTRYTMHWVRQAPGQRLEWIGFIVPSTGYTKYNQKFKDRVTITRDTSASTAYMELSSLRSEDTAVYYCARNKEVDYGASWGQGTLVTVSS
VL: DVVMTQSPLSLPVTLGQPASISCKSSQSLLDSDGRTYLNWFQQRPGQSPRRLIYLVSKLDSGVPDRFSGSGSGTDFTLKITRVEAEDVGVYYCWQGSHFPQTFGQGTKVEIK
notes: detected with anti-human IgG; Human IgG1 is named as the preferred class
binding result [3]: no binding (tested: 10 µg/ml and 1 µg/ml)

binding result [6]: no binding
binding result [7]: no binding (tested: 10 µg/ml)
binding result [8]: no binding (tested: 10 µg/ml)
binding result [9]: binds
binding result [10]: binds
binding result [11]: binds
fold higher affinity than the tested prior art antibodies (DOC2, 1D9, Clone 48607) [1]: > 5 fold
B3: Antibody Y4T3 (antibody, V domains shown)
VH: QVHLQQSGTELARPGASIKLSCKTSGSTFTRYTMHWIKQRPGQGLEWIGFIVPSTGYTKYNQKFKDKATLTADKSSSTAYMHLNSLTSEDSALYYCARNKEVDYGASWGQGTLVTVSA
VL: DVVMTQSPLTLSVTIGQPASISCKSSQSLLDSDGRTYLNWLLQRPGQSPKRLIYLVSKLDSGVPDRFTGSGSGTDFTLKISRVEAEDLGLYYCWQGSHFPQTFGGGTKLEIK
notes: also called Y3T3 [sic]; Y4T4 [sic]
